Experimental data taken from the supplement of paper PMC10567573.

B1: RSAD1 (parent)
chain: YCNFNKYIPRRLEEAAMQKCLVTE
B2: KRT13 (parent)
chain: YGGGLGGGFGGGFAGGFVDFGACD

Variants of: B1
Test: protein stability index of a GFP-peptide fusion (GPS, HEK-293T) (PSI 1-6); higher = more stable
Details: c terminus: a fixed tail appended
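Further: lentivirally expressed fusions sorted by FACS into six bins by GFP to DsRed ratio, PSI derived from sequencing read proportions per bin multiplied by bin number.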

Protein stability index of substitutions, site by site:
A16: N 3.66; R 2.39; W 1.79; D 2.54; Q 2.23; C 3.34; M 1.57; K 3.53; Y 2.16; H 3.97; L 1.41
L21: A 2.09; G 2.03; R 1.51; I 1.79; D 2.17; F 2.97; P 2.17; Q 3.19; S 1.42; M 1.42; C 2.15; T 2.04
P9: R 1.37; V 2.71; G 2.12; H 2.14; W 2.6; S 2.52; C 3.11; M 1.4; K 1.73; A 2.11; E 3.05
F4: S 2.8; R 1.95; H 1.21; D 2.58; L 2.08; E 2.07; C 1.94; P 2.82; G 2.66; Q 2.76; W 2.56; T 2.61
K19: G 2.12; P 2.76; W 2.37; M 4.09; Y 2.31; Q 2.96; V 1.48; D 1.68; I 2.25; L 3.06; S 2.41; T 2.01
L12: F 2.15; C 1.96; P 2.95; M 2.83; D 2.19; H 2.52; Y 3.24; E 2.46; R 2.41; T 2; V 2.74; S 2.45; Q 4; N 3.28; G 2.96; W 4.96
I8: D 2.3; R 1.67; W 2.26; S 2.37; M 1.85; A 1.69; K 1.71; P 1.83; L 2.05; E 2.03; Y 1.5; F 2.48; H 2.58
C20: E 2.02; K 2.11; N 2.44; M 2.27; Q 2; P 1.95; W 2.77; D 2.56; S 2.1; R 2.55; V 1.89; H 2.31; A 2.87; Y 4.07; F 2.7; I 3.05
N5: P 2.07; M 2.72; D 1.49; G 2.91; H 2.31; I 2.17; T 2.59; Q 2.18; K 2.28; S 3.3; L 3.04; A 1.68; V 1.19; Y 2.75
A15: H 3.35; Y 2.61; M 2.14; W 1.04; Q 2.24; E 1.84; V 3.4; F 2.02; L 2.23
C2: Q 1.87; D 2.88; N 2.84; G 2.48; H 3.01; S 1.84; R 2.42; K 2.31; P 1.44; A 2.33; W 1.82; M 2.31; E 2.98
V22: R 3.88; T 3.32; K 2.57; D 1.76; S 2.38; E 2.41; C 2.58; P 1.97; N 2.35; G 2.02; H 2.78; Y 1.41; M 2.58
Y7: C 2.52; P 2.42; T 2.22; I 2.02; R 2.31; D 2.49; V 3.01; A 2.11; G 2.18; S 2.51; Q 1.8; M 1.79; L 2
E14: N 3.14; I 2.32; S 2.5; D 2.71; G 3; M 3.14; Q 2.85; P 2.92; W 1.96; R 2.33; L 2.34; K 1.58; H 1.65
E13: H 3.29; Q 1.93; N 3.29; C 1.99; K 1.82; A 2.63; L 2.16; M 2.56; R 2.19; S 1.46; W 2.49; P 3.17; G 2.11
R10: A 1.91; G 1.24; M 2.53; N 2.33; Y 2.26; S 1.48; T 1.59; Q 1.96; W 3.64; I 2.39; E 1.26; P 1.74
N3: R 1.66; H 2.74; G 2.94; W 1.96; A 2.13; Q 2.04; Y 1.63; C 1.95; V 1.85; L 1.66; K 1.84
T23: M 2.17; V 3.13; Y 2.61; P 3.87; I 2.22; R 1.78; E 1.94; Q 3.64; F 3; A 1.9
R11: K 2.14; V 2.41; G 2.64; H 2.96; S 1.44; C 2.17; T 1.95; W 2.73; Y 1.48; F 3.01; A 3.42
K6: T 2.79; Y 3.05; M 3.03; F 3.19; I 2.52; S 2.19; A 2.11; D 2.9; E 3.37; C 1.43; P 2.21; N 2.56
Y1: E 2.49; I 2.76; W 2.65; L 2.72; C 1.97; H 2.94; P 2.27; A 2.31; M 2.32; T 2.38; S 2.46; N 2.58; F 1.68; K 2.63
E24: V 1.9; Q 2.38; G 2.29; R 2.32; S 1.64; L 3.31; Y 2.16; A 3.14; I 2.83; P 2.28; M 2.84; T 1.44; F 2.77; D 2.4
M17: V 2; K 2.85; W 2.1; I 2.82; P 1.92; A 1.98; T 3.45; C 1.72; E 2.44; Y 2.85; D 3.71; G 1.99; F 1.67; N 2.11
Q18: K 2.15; D 1.84; H 1.88; C 2.41; F 2.34; L 1.71; T 1.89; A 1.75; I 2.76; P 1.96; Y 2.88; G 1.76

Variants of: B2
Test: as above
Details: c terminus: a fixed tail appended

Protein stability index, by site and new letter:
G4: I 1.93
F20: V 1.36
C23: Q 1.31; F 1.41
A14: T 1.84
F13: D 2.1; A 1.55
V18: S 3.77
G11: V 2.4; E 2.12
G15: V 3.52; Y 1.67
D19: C 1.86
G3: Y 1.21; D 1.5; R 2.27
D24: S 2.43
G16: N 1.71; Q 2.36; A 1.81
G7: F 3.32; L 1.81
G8: V 2.48; K 1.24; E 1.72
L5: W 3.09
Y1: M 2.43; H 2.9; A 2.87
F17: K 1.96; L 1.09; C 2.18
G10: Q 2.21
